The results in this text go back to patent US20140179594A1, “STREPTOCOCCUS BACTERIOPHAGE LYSINS FOR TREATMENT OF GRAM POSITIVE BACTERIA IN COMPANION ANIMALS AND LIVESTOCK” (priority 2011, published 2014).

Common to all, as to format: cell-based
The subject of one assay is S. dysgalactiae GGS. The experiment in a line: ΔPlySs1 OD600 lysis, 1 hr.
The subject of another assay is S. suis strain 7711. In words: ΔPlySs1 growth inhibition in BHI broth. The following applies: strain 7711 in BHI broth, overnight. As for the experimental part:
The optical density of each sample was measured continuously overnight in 96-well plate format. Overall, bacterial growth was delayed in a dose-dependent manner. However, for enzyme-concentrations that were sufficient to induce lysis in buffered solutions (130 and 50 μg/ml), the effect was quite minimal here. […] For all of the treated samples, one will note that the final optical densities are actually higher than that of the untreated sample. This is an artifact of the accumulation of aggregated bacterial debris that occurred in the presence of lytic enzyme.
Given the above experiments, the following optimal buffering conditions were employed for all further in vitro experiments with ΔPlySs1: 20 mM phosphate buffer, pH=7.8, 2 mM EDTA. A range of lysin concentrations, from 6.5-130 μg/ml, were introduced to live S. suis cells in this buffer. Three strains were considered particularly relevant: 7711, the serotype 7 strain that encodes PlySs1; 5735, the serotype 2 reference strain; and 7997, a highly virulent serotype 9 strain. In terms of bacterial viability, only the highest PlySs1-concentration (130 μg/ml) led to a >90% decrease in CFUs for 7711, S735, and 7997 after 1 hr treatment (TABLE 2). The lysin was also tested against actively-dividing cells in broth culture (strain 7711) (FIG. 20).

For the next assay, the system named is B. cereus 14579. The experiment in a line: ΔPlySs1 OD600 lysis, 1 hr.

B1: ΔPlySs1: truncated PlySs1 lysin with N-terminal enzymatic and central binding domains, N-terminal 254 amino acids, SEQ ID NO:2 (protein, listed as Streptococcus suis)
chain: MTINLETSIRWMSDRVGKVSYSMDYRNGPNSYDCSSAVYYALMAGGAISAGWAVNTEYMHDWLIRNGYVLVAENKPFNAQRHDVCILGKRGYSSGAGGHVVIFVDNVNVIHCNYARNGISIDNYNQVHRGMYYYLYRPANQPSISNKSLDQLVKETLAGVHGNGDTRKASLGSQYEAVMAVINGKASASEKSDEELAREVLAGKHGAGEDRKRSLGPRYEPVQAKVNELLKAKEKPSETAKNEPQTVQFKEDGDL
With B1, the “1-hour treated/untreated OD600-ratio” value in the assay with S. dysgalactiae GGS (6.5 μg/ml) is on record as 0.30; with S. dysgalactiae GGS (13 μg/ml) it was 0.27; in the assay on S. dysgalactiae GGS (30 μg/ml) it was 0.15; with S. dysgalactiae GGS (65 μg/ml), 0.11; in the assay on S. dysgalactiae GGS (130 μg/ml) it was 0.14; in the assay with B. cereus 14579 (6.5 μg/ml), 0.93. In addition, the “1-hour treated/untreated OD600-ratio” value in the assay on B. cereus 14579 (13 μg/ml) was determined as 0.92; with B. cereus 14579 (30 μg/ml), 0.86; in the assay on B. cereus 14579 (65 μg/ml) it was 0.90; with B. cereus 14579 (130 μg/ml), 0.86. Besides, the “growth inhibition of actively-dividing cells” value with S. suis strain 7711 was “could not inhibit S. suis growth outright”.
